Patent US20250302942A1 (LG CHEM, published 2025)

Biological target: T1, ACE2-Fc (LG chem) (human, UniProt Q9BYF1 18-740)
T1 construct: extracellular domain; also called ACE2-ED; extracellular domain of human Angiotensin Converting Enzyme 2 protein; not shown: Fc part of ACE2-Fc
Assay: BLI (Octet QKe), ACE2-Fc captured on Protein A sensor, analyte at 100 ug/mL

T1 sequence (Q9BYF1 18-740): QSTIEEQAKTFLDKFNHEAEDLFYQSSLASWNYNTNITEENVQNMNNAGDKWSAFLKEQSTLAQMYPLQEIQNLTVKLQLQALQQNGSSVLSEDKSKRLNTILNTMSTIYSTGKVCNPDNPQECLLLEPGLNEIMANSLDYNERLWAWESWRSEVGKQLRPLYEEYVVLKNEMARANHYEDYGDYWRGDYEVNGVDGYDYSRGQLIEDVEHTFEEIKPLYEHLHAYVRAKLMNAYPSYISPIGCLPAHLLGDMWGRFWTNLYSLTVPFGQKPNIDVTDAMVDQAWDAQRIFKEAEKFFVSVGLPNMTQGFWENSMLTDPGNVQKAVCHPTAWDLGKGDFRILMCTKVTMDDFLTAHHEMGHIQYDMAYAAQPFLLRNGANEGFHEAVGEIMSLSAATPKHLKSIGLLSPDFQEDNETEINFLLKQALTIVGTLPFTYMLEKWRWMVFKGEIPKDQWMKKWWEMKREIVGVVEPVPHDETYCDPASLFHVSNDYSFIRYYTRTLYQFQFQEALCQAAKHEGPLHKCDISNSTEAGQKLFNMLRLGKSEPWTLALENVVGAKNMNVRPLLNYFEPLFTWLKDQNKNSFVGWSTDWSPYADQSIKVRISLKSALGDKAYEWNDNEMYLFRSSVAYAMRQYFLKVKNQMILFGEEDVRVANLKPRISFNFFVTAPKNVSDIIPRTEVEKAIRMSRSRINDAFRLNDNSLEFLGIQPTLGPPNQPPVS

B1: Hepatitis B surface antigen (HBsAg) VLP (other)
chain: MESTTSGFLGPLLVLQAGFFLLTRILTIPQSLDSWWTSLNFLGGAPTCPGQNSQSPTSNHSPTSCPPICPGYRWMCLRRFIIFLFILLLCLIFLLVLLDYQGMLPVCPLLPGTSTTSTGPCKTCTIPAQGTSMFPSCCCTKPSDGNCTCIPIPSSWAFARFLWEWASVRFSWLSLLVPFVQWFAGLSPTVWLSVIWMMWYWGPSLYNILSPFLPLLPIFFCLWVYI
notes: also called HBsAg1
ACE2 Binding activity: 0.24
